Assay results: the supplement of paper PMC11780869

Tested on: Bacillus subtilis
Assay: cleaved RNA product abundance (RNA/gDNA barcode ratio) relative to median wild-type variant (ratio to wild type); higher = more accumulation of the downstream cleavage product
Conditions: experiment (reporter, strain, medium): exp 8a: truncated aprE reporter, strain BJT201 with 2% xylose (RNase J1 expressed); cleavage site: glnRA (positions -5 to +31 mutated)
Method in brief: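 Cleaved product abundance was measured with barcoded reporter mRNAs (truncated aprE or tetM) carrying mutagenized RNase Y cleavage-site windows in the B. subtilis chromosome. Cultures in LB at 37°C grew from OD600 0.0003 to 0.3. Gel-selected cleaved RNA was reverse transcribed and barcode-sequenced with genomic DNA barcodes, and the RNA:gDNA barcode ratio per construct was scaled to the median construct bearing the unmutated site.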

Point of comparison: “CGACATGTCCCGCTTCTTTCATTAATCCGTTAACAAATGTTTTGCTATATACATTTACCTTTTAAGAGGAGGAAT”, “cleaved RNA product abundance” value 0.287. Against it:
- CGACATGTCCCGCTTCTTTCATTAATCCGTCAACAACTGTTTTGCTATATACATTTACCTTTTAAGAGGAGGAAT — higher, 0.384
- CGACATGTCCCGCTTCTTTCATTAATCCGTCAGAAACTGTTTTGCTATATACATTTACCTTTTAAGAGGAGGAAT — lower, 0.185
- CGACATGTCCCGCTTCTTTCATTAATCCGTCAGCAAATGTTTTGCTATATACATTTACCTTTTAAGAGGAGGAAT — higher, 0.398
- CGACATGTCCCGCTTCTTTCATTAATCCGTCAGCAACTATTTTGCTATATACATTTACCTTTTAAGAGGAGGAAT — higher, 0.387
- CGACATGTCCCGCTTCTTTCATTAATCCGTCAGCAACTGTATTGCTATATACATTTACCTTTTAAGAGGAGGAAT — lower, 0.214
- CGACATGTCCCGCTTCTTTCATTAATCCGTCAGCAACTGTTTAGCTATATACATTTACCTTTTAAGAGGAGGAAT — higher, 0.305
- CGACATGTCCCGCTTCTTTCATTAATCCGTCAGCAACTGTTTTGCTATATACATTAACCTTTTAAGAGGAGGAAT — higher, 0.528
- CGACATGTCCCGCTTCTTTCATTAATCCGTCAGCAACTGTTTTGCTATATACATTTAACTTTTAAGAGGAGGAAT — higher, 0.483
- CGACATGTCCCGCTTCTTTCATTAATCCGTCAGCAACTGTTTTGCTATATACATTTACCATTTAAGAGGAGGAAT — higher, 0.704
- CGACATGTCCCGCTTCTTTCATTAATCCGTCAGCAACTGTTTTGCTATATACATTTACCTTTTAAGAGGAGGAAT — higher, 0.406
- CGACATGTCCCGCTTCTTTCATTAATCCGTCAGCAACTGTTTTGCTATATATATTTACCTTTTAAGAGGAGGAAT — higher, 0.367
- CGACATGTCCCGCTTCTTTCATTAATCCGTCAGCAACTGTTTTGCTATATTCATTTACCTTTTAAGAGGAGGAAT — lower, 0.112
- CGACATGTCCCGCTTCTTTCATTAATCCGTCAGCAACTGTTTTGTTATATACATTTACCTTTTAAGAGGAGGAAT — higher, 0.485
- CGACATGTCCCGCTTCTTTCATTAATCCGTCAGCAACTTTTTTGCTATATACATTTACCTTTTAAGAGGAGGAAT — higher, 0.621
- CGACATGTCCCGCTTCTTTCATTAATCCGTCCGCAACTGTTTTGCTATATACATTTACCTTTTAAGAGGAGGAAT — lower, 0.264
- CGACATGTCCCGCTTCTTTCATTAATCCGTGAACAACTGTTTTGCTATATACATTTACCTTTTAAGAGGAGGAAT — lower, 0.232
- CGACATGTCCCGCTTCTTTCATTAATCCGTGAGCAACTATTTTGCTATATACATTTACCTTTTAAGAGGAGGAAT — higher, 0.988
- CGACATGTCCCGCTTCTTTCATTAATCCGTGAGCAACTGTTTAGCTATATACATTTACCTTTTAAGAGGAGGAAT — higher, 0.335
- CGACATGTCCCGCTTCTTTCATTAATCCGTGAGCAACTGTTTTGATATATACATTTACCTTTTAAGAGGAGGAAT — higher, 0.427
- CGACATGTCCCGCTTCTTTCATTAATCCGTGAGCAACTGTTTTGCTATACACATTTACCTTTTAAGAGGAGGAAT — lower, 0.0879
- CGACATGTCCCGCTTCTTTCATTAATCCGTGAGCAACTGTTTTGCTATATAAATTTACCTTTTAAGAGGAGGAAT — higher, 0.357
- CGACATGTCCCGCTTCTTTCATTAATCCGTGAGCAACTGTTTTGCTATATACATTTAACTTTTAAGAGGAGGAAT — higher, 0.854
- CGACATGTCCCGCTTCTTTCATTAATCCGTGAGCAACTGTTTTGCTATATACATTTACCATTTAAGAGGAGGAAT — higher, 0.655
- CGACATGTCCCGCTTCTTTCATTAATCCGTGAGCAACTGTTTTGCTATATACATTTACCTTTTAAGAGGAGGAAT — higher, 0.549
- CGACATGTCCCGCTTCTTTCATTAATCCGTGAGCAACTGTTTTGCTATATACATTTACTTTTTAAGAGGAGGAAT — higher, 0.477
- CGACATGTCCCGCTTCTTTCATTAATCCGTGAGCAACTGTTTTGCTATATACTTTTACCTTTTAAGAGGAGGAAT — lower, 0.154
- CGACATGTCCCGCTTCTTTCATTAATCCGTGAGCAACTGTTTTGCTATATATATTTACCTTTTAAGAGGAGGAAT — higher, 0.87
- CGACATGTCCCGCTTCTTTCATTAATCCGTGAGCAACTGTTTTGCTATATTCATTTACCTTTTAAGAGGAGGAAT — lower, 0.177
- CGACATGTCCCGCTTCTTTCATTAATCCGTGAGCAACTGTTTTGCTTTATACATTTACCTTTTAAGAGGAGGAAT — lower, 0.184
- CGACATGTCCCGCTTCTTTCATTAATCCGTGAGCAAGTGTTTTGCTATATACATTTACCTTTTAAGAGGAGGAAT — higher, 0.375
- CGACATGTCCCGCTTCTTTCATTAATCCGTGAGCAGCTGTTTTGCTATATACATTTACCTTTTAAGAGGAGGAAT — lower, 0.231
- CGACATGTCCCGCTTCTTTCATTAATCCGTGATCAACTGTTTTGCTATATACATTTACCTTTTAAGAGGAGGAAT — higher, 0.346
- CGACATGTCCCGCTTCTTTCATTAATCCGTTAAAAACTGTTTTGCTATATACATTTACCTTTTAAGAGGAGGAAT — higher, 0.292
- CGACATGTCCCGCTTCTTTCATTAATCCGTTAACAACAGTTTTGCTATATACATTTACCTTTTAAGAGGAGGAAT — lower, 0.183
- CGACATGTCCCGCTTCTTTCATTAATCCGTTAACAACTATTTTGCTATATACATTTACCTTTTAAGAGGAGGAAT — lower, 0.275
- CGACATGTCCCGCTTCTTTCATTAATCCGTTAACAACTGATTTGCTATATACATTTACCTTTTAAGAGGAGGAAT — lower, 0.248
- CGACATGTCCCGCTTCTTTCATTAATCCGTTAACAACTGTATTGCTATATACATTTACCTTTTAAGAGGAGGAAT — higher, 0.316
- CGACATGTCCCGCTTCTTTCATTAATCCGTTAACAACTGTCTTGCTATATACATTTACCTTTTAAGAGGAGGAAT — lower, 0.0713
- CGACATGTCCCGCTTCTTTCATTAATCCGTTAACAACTGTGTTGCTATATACATTTACCTTTTAAGAGGAGGAAT — lower, 0.24
- CGACATGTCCCGCTTCTTTCATTAATCCGTTAACAACTGTTATGCTATATACATTTACCTTTTAAGAGGAGGAAT — lower, 0.219
- CGACATGTCCCGCTTCTTTCATTAATCCGTTAACAACTGTTTGGCTATATACATTTACCTTTTAAGAGGAGGAAT — lower, 0.159
- CGACATGTCCCGCTTCTTTCATTAATCCGTTAACAACTGTTTTACTATATACATTTACCTTTTAAGAGGAGGAAT — lower, 0.222
- CGACATGTCCCGCTTCTTTCATTAATCCGTTAACAACTGTTTTCCTATATACATTTACCTTTTAAGAGGAGGAAT — lower, 0.263
- CGACATGTCCCGCTTCTTTCATTAATCCGTTAACAACTGTTTTGATATATACATTTACCTTTTAAGAGGAGGAAT — lower, 0.235
- CGACATGTCCCGCTTCTTTCATTAATCCGTTAACAACTGTTTTGCAATATACATTTACCTTTTAAGAGGAGGAAT — lower, 0.185
- CGACATGTCCCGCTTCTTTCATTAATCCGTTAACAACTGTTTTGCCATATACATTTACCTTTTAAGAGGAGGAAT — lower, 0.114
- CGACATGTCCCGCTTCTTTCATTAATCCGTTAACAACTGTTTTGCGATATACATTTACCTTTTAAGAGGAGGAAT — lower, 0.215
- CGACATGTCCCGCTTCTTTCATTAATCCGTTAACAACTGTTTTGCTAAATACATTTACCTTTTAAGAGGAGGAAT — lower, 0.202
- CGACATGTCCCGCTTCTTTCATTAATCCGTTAACAACTGTTTTGCTATAAACATTTACCTTTTAAGAGGAGGAAT — lower, 0.207
- CGACATGTCCCGCTTCTTTCATTAATCCGTTAACAACTGTTTTGCTATACACATTTACCTTTTAAGAGGAGGAAT — lower, 0.162
- CGACATGTCCCGCTTCTTTCATTAATCCGTTAACAACTGTTTTGCTATATAAATTTACCTTTTAAGAGGAGGAAT — lower, 0.227
- CGACATGTCCCGCTTCTTTCATTAATCCGTTAACAACTGTTTTGCTATATACAATTACCTTTTAAGAGGAGGAAT — lower, 0.242
- CGACATGTCCCGCTTCTTTCATTAATCCGTTAACAACTGTTTTGCTATATACACTTACCTTTTAAGAGGAGGAAT — higher, 0.329
- CGACATGTCCCGCTTCTTTCATTAATCCGTTAACAACTGTTTTGCTATATACATATACCTTTTAAGAGGAGGAAT — lower, 0.195
- CGACATGTCCCGCTTCTTTCATTAATCCGTTAACAACTGTTTTGCTATATACATTTAACTTTTAAGAGGAGGAAT — lower, 0.24
- CGACATGTCCCGCTTCTTTCATTAATCCGTTAACAACTGTTTTGCTATATACATTTACATTTTAAGAGGAGGAAT — lower, 0.202
- CGACATGTCCCGCTTCTTTCATTAATCCGTTAACAACTGTTTTGCTATATACATTTACCATTTAAGAGGAGGAAT — lower, 0.176
- CGACATGTCCCGCTTCTTTCATTAATCCGTTAACAACTGTTTTGCTATATACATTTACCCTTTAAGAGGAGGAAT — lower, 0.198
- CGACATGTCCCGCTTCTTTCATTAATCCGTTAACAACTGTTTTGCTATATACATTTACCTTTTAAGAGGAGGAAT — lower, 0.217
- CGACATGTCCCGCTTCTTTCATTAATCCGTTAACAACTGTTTTGCTATATACATTTACTTTTTAAGAGGAGGAAT — lower, 0.253
